Test results from US20250353921A1 (ASTRIA THERAPEUTICS, published 2025).
Substitutions are numbered along the chain they refer to. In names and notes the source's numbering stands. Several values for one entry are separate records, joined by “and”; a condition that tells them apart may be missing. Equal entries are not always repeated. Values belong to the binder of their own block, whether it stands above or below them.

Tests used:
[1] = molecular target: T1, human OX40 (TNFRSF4, CD134) on cells (human, UniProt P43489 29-277); assay: flow cytometry on Jurkat-NFκB (OX40) cells, detection with anti-human IgG Fc-AF647
T1 construct: also called OX40 on HPB-ALL cells; Jurkat-NFκB-OX40 cells
T1 sequence: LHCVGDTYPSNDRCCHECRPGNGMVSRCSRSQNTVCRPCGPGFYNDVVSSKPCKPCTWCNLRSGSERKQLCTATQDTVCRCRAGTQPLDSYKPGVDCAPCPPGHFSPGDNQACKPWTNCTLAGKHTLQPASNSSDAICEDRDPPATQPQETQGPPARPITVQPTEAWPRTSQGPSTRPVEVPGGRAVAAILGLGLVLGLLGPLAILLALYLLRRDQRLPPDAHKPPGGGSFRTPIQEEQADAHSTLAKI

[2] = molecular target: T1, human OX40 (TNFRSF4, CD134) on cells; assay: flow cytometry on Jurkat-NF-κB-OX40 cells, detection with PE anti-human IgG Fc, occupancy in % of the saturating dose; in the presence of 0.3 µg/ml OX40L; time point not stated on the sheet
[3] = molecular target: T1, human OX40 (TNFRSF4, CD134) on cells; assay: cell-based or functional assay
[4] = molecular target: T1, human OX40 (TNFRSF4, CD134) on cells; assay: cell-based or functional assay; remark: listed apart in the source
[5] = molecular target: T1, human OX40 (TNFRSF4, CD134) on cells; assay: flow cytometry on Jurkat-NF-κB-OX40 cells, detection with PE anti-human IgG Fc, occupancy in % of the saturating dose; in the presence of 0.07 µg/ml OX40L; time point not stated on the sheet
[6] = molecular target: T1, human OX40 (TNFRSF4, CD134) on cells; assay: cell-based or functional assay; remark: listed apart in the source
[7] = molecular target: T1, human OX40 (TNFRSF4, CD134) on cells; assay: cell-based or functional assay; remark: listed apart in the source
[8] = molecular target: T2, human OX40-CRD-avi-his (human, UniProt P43489 29-170, limits assumed); assay: SPR Biacore T200, IgG captured by anti-human antibody, antigen as analyte, 1:1 Langmuir
T2 construct: Only the CRD region of the ECD was used
T2 sequence: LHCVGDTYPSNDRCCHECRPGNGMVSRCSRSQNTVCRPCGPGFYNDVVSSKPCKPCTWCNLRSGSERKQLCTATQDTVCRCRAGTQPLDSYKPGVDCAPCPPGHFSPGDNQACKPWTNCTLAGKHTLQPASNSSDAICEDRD

[9] = molecular target: T3, cynomolgus OX40-ECD-his (cynomolgus); assay: as above
T3 construct: extracellular domain; also called Cyno OX40

[10] = molecular target: T4, Human OX40 (Acro Biosystems, catalog NO: OXO-H5224) protein (human, UniProt P43489 29-216); assay: SPR Biacore 8K+
T4 construct: Bought protein; also called recombinant human OX40 receptor; recombinant human OX40 protein
T4 sequence: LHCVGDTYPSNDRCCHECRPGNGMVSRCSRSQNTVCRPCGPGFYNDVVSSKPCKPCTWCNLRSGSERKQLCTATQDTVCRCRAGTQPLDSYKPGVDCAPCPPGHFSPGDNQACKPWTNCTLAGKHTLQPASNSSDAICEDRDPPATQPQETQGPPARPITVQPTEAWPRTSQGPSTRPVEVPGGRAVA

[11] = molecular target: T1, human OX40 (TNFRSF4, CD134) on cells; assay: cell-based or functional assay; remark: listed apart in the source
[12] = molecular target: T1, human OX40 (TNFRSF4, CD134) on cells; assay: flow cytometry on Jurkat-NF-κB-OX40 cells, detection with PE anti-human IgG Fc, occupancy in % of the saturating dose; in the presence of 5 µg/ml OX40L; time point not stated on the sheet
[13] = molecular target: T5, Human FcRn protein (Acro Biosystems, catalog NO: FCN-H52W7) (human, UniProt P55899 24-297; P61769 21-119); assay: SPR Biacore 8K+, antibody immobilised, FcRn analyte, pH 6.0; pH 6.0; ratio of the KD of MAB1 to that of MAB10
T5 construct: also called huFcRn

[14] = molecular target: T6, rat (ra) OX40 protein (rat, UniProt P15725 20-210, limits assumed); assay: SPR single cycle kinetics, MAB10 captured
T6 construct: also called Rat OX40
T6 sequence (looked up): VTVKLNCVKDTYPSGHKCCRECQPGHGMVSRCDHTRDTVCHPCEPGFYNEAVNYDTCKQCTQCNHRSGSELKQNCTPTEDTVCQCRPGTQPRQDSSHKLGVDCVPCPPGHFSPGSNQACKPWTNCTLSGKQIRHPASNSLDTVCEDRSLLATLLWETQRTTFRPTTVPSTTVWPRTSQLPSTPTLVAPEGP

[15] = molecular target: T7, mouse (mo) OX40 protein (mouse, UniProt P47741 20-211); assay: SPR single cycle kinetics, MAB10 captured
T7 construct: also called Mouse OX40
T7 sequence (looked up): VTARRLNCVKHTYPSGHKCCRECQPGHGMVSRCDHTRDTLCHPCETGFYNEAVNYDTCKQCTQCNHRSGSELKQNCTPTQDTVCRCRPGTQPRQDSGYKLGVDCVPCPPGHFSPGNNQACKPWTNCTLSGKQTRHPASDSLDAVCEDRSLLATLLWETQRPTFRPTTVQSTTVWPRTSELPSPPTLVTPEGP

[16] = molecular target: T1, human OX40 (TNFRSF4, CD134) on cells; assay: flow cytometry on OX40-expressing HPB-ALL cells; cells pre-incubated with cold GBR 830, washed, then stained with a single dose of the competitor MAB1-AF647

- EC50 (read off the curve) [1]: ~0.09 mg/L
- EC50 (read off the curve) [2]: ~0.2 nM
- EC50, inhibition of T cell proliferation [3]: 0.17 nM and 0.24 ug/ml
- Fold change to GBR 830, proliferation EC50 [3]: 33 fold
- ADCC EC50, in vitro differentiated Tregs [4]: 0.089 nM and 0.015 µg/mL
- Fold Change to GBR 830, ADCC EC50, Tregs [4]: 74 fold
- EC50 (read off the curve) [5]: ~0.2 nM
- ADCC EC50, activated T cells [6]: 0.026 nM and 0.004 ug/ml
- Fold Change to GBR 830, ADCC EC50, activated T cells [6]: 3.25 fold
- fold decrease in ADCC of activated T cells against KHK4083 [7]: 3 fold
- Kd [8]: 6 nM
- koff [8]: 0.00163 s⁻¹
- kon [8]: 274000 M⁻¹ s⁻¹
- Kd [9]: 557 nM
- koff [9]: 0.0405 s⁻¹
- kon [9]: 72700 M⁻¹ s⁻¹
- fold increase in binding affinity against GBR830 [10]: 8 fold
- average proliferation index (Av), coated T cell agonism assay [11]: 0.97
- EC50 (read off the curve) [12]: ~0.4 nM
B1: MAB1 IgG1 (antibody)
heavy: not shown
light: EIVLTQSPATLSLSPGERATLSCRASSSVSYMHWYQQKPGQAPRPWIYATSNRATGIPARFSGSGSGTDYTLTISSLEPEDFAVYYCQQFGAWPWTFGQGTKVEIKRTVAAPSVFIFPPSDEQLKSGTASVVCLLNNFYPREAKVQWKVDNALQSGNSQESVTEQDSKDSTYSLSSTLTLSKADYEKHKVYACEVTHQGLSSPVTKSFNRGEC
notes: Human IgG1, kappa

- EC50 (read off the curve) [2]: ~0.4 nM
- fold increase of the binding constant against MAB1 [13]: 8.8 fold
- EC50 (read off the curve) [5]: ~0.3 nM
- binding result [14]: no binding
- binding result [15]: no binding
- EC50 (inhibition) of NFκB signaling, Jurkat-NFκB-OX40 cells, 0.07 µg/mL OX40L [7]: 0.79 nM
- EC50 (inhibition) of NFκB signaling, Jurkat-NFκB-OX40 cells, 5 µg/mL OX40L [7]: 4.59 nM
- fold increase in binding affinity against GBR830 [10]: 8 fold
- EC50 (read off the curve) [12]: ~0.7 nM
B2: MAB10 (antibody, human IgG1, kappa)
heavy: QVTLKESGPALVKPTQTLTLTCSFSGFSLSTSGMGVGWIRQPPGKALEWIAHIWWDDDKYYNTALKTRLTISKDTSKNQVVLTMTNMDPVDTATYYCARIDWDGFAYWGQGTLVTVSSASTKGPSVFPLAPSSKSTSGGTAALGCLVKDYFPEPVTVSWNSGALTSGVHTFPAVLQSSGLYSLSSVVTVPSSSLGTQTYICNVNHKPSNTKVDKKVEPKSCDKTHTCPPCPAPELLGGPSVFLFPPKPKDTLYITREPEVTCVVVDVSHEDPEVKFNWYVDGVEVHNAKTKPREEQYNSTYRVVSVLTVLHQDWLNGKEYKCKVSNKALPAPIEKTISKAKGQPREPQVYTLPPSRDELTKNQVSLTCLVKGFYPSDIAVEWESNGQPENNYKTTPPVLDSDGSFFLYSKLTVDKSRWQQGNVFSCSVMHEALHNHYTQKSLSLSPGK
light: B1 light
notes: MAB1 with M252Y, S254T and T256E (EU numbering) in the IgG1 Fc; also called MAB1 Heavy Chain + YTE

- EC50 (read off the curve) [1]: ~0.3 mg/L
- EC50 (read off the curve) [2]: ~0.7 nM
- IC50 (read off the curve) [16]: ~0.2 mg/L
- EC50, inhibition of T cell proliferation [3]: 5.67 nM and 0.833 ug/ml
- ADCC EC50, in vitro differentiated Tregs [4]: 0.833 nM and 0.121 µg/mL
- EC50 (read off the curve) [5]: ~0.5 nM
- ADCC EC50, activated T cells [6]: 0.078 nM and 0.13 ug/ml
- Kd [8]: 80.4 nM
- koff [8]: 0.00654 s⁻¹
- kon [8]: 81300 M⁻¹ s⁻¹
- Kd [9]: 3040 nM
- average proliferation index (Av), coated T cell agonism assay [11]: 0.98
B3: GBR 830 (telazorlimab) (antibody, human IgG1, kappa)
heavy: not shown
light: B1 light with F90W, G91S, A92S, W93N
notes: IgG1; also called Antibody 830; ISB830
